Results taken from the supplement of paper PMC9112550, “Optimization of the antimicrobial peptide Bac7 by deep mutational scanning” (BMC Biology, 2022).

Test system: Escherichia coli TOP10
Assay: shrunken log2 fold change of peptide-encoding DNA abundance (4.5 h post-induction vs induction); higher = less antimicrobial activity (less host growth inhibition)
Conditions: time post-induction: 4.5 h; library: site-saturation at positions 5, 18, 19, 20
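Also: peptides expressed intracellularly from a pBAD plasmid library in pooled LB shake-flask culture, induced with 0.3% L-arabinose, DNA abundance read by NGS, three biological replicates, DESeq2 with apeglm shrinkage.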

Question: Which “shrunken log2 fold change” value does the source give for RRIRQRPPRLPRPRPRPSMMPRP here?
Answer: The value was -0.565.

Question: Which “shrunken log2 fold change” value does the source give for RRIRQRPPRLPRPRPRPSMPPRP here?
Answer: Its value is -0.0542.

Question: How did the “shrunken log2 fold change” value turn out when RRIRQRPPRLPRPRPRPSNGPRP was run?
Answer: Its value is -0.687.

Question: How did the “shrunken log2 fold change” value turn out when RRIRQRPPRLPRPRPRPSNYPRP was run?
Answer: Its value is -0.0943.

Question: RRIRQRPPRLPRPRPRPSQRPRP was tested. Which “shrunken log2 fold change” value did it give?
Answer: Its value is -0.523.

Question: RRIRQRPPRLPRPRPRPSSPPRP was tested. Which “shrunken log2 fold change” value did it give?
Answer: The value was 0.167.

Question: With RRIRQRPPRLPRPRPRPSTEPRP as the sequence, how does the “shrunken log2 fold change” value read?
Answer: Its value is -0.0926.

Question: RRIRQRPPRLPRPRPRPSTMPRP was tested. Which “shrunken log2 fold change” value did it give?
Answer: Its value is 0.0933.

Question: RRIRQRPPRLPRPRPRPSYRPRP was tested. Which “shrunken log2 fold change” value did it give?
Answer: The value was -0.0524.

Question: How did the “shrunken log2 fold change” value turn out when RRIRQRPPRLPRPRPRPTAFPRP was run?
Answer: Its value is 0.321.

Question: How did the “shrunken log2 fold change” value turn out when RRIRQRPPRLPRPRPRPTAHPRP was run?
Answer: Its value is -0.0756.

Question: With RRIRQRPPRLPRPRPRPTASPRP as the sequence, how does the “shrunken log2 fold change” value read?
Answer: Its value is -0.0116.

Question: For RRIRQRPPRLPRPRPRPTFFPRP, which “shrunken log2 fold change” value is on record?
Answer: Its value is -0.0813.

Question: How did the “shrunken log2 fold change” value turn out when RRIRQRPPRLPRPRPRPTGYPRP was run?
Answer: The value was 0.0832.

Question: RRIRQRPPRLPRPRPRPTHMPRP was tested. Which “shrunken log2 fold change” value did it give?
Answer: The value was 0.0516.

Question: For RRIRQRPPRLPRPRPRPTIGPRP, which “shrunken log2 fold change” value is on record?
Answer: The value was 0.0815.

Question: With RRIRQRPPRLPRPRPRPTIQPRP as the sequence, how does the “shrunken log2 fold change” value read?
Answer: Its value is 0.0369.

Question: Which “shrunken log2 fold change” value does the source give for RRIRQRPPRLPRPRPRPTITPRP here?
Answer: Its value is -0.273.

Question: For RRIRQRPPRLPRPRPRPTKWPRP, which “shrunken log2 fold change” value is on record?
Answer: The value was 0.25.

Question: Which “shrunken log2 fold change” value does the source give for RRIRQRPPRLPRPRPRPTMQPRP here?
Answer: Its value is 0.0998.

Question: Which “shrunken log2 fold change” value does the source give for RRIRQRPPRLPRPRPRPTMRPRP here?
Answer: The value was 0.86.

Question: For RRIRQRPPRLPRPRPRPTNTPRP, which “shrunken log2 fold change” value is on record?
Answer: Its value is -0.216.

Question: How did the “shrunken log2 fold change” value turn out when RRIRQRPPRLPRPRPRPTQDPRP was run?
Answer: Its value is 0.508.

Question: With RRIRQRPPRLPRPRPRPTQMPRP as the sequence, how does the “shrunken log2 fold change” value read?
Answer: Its value is 0.0693.

Question: With RRIRQRPPRLPRPRPRPTQPPRP as the sequence, how does the “shrunken log2 fold change” value read?
Answer: The value was 0.356.

Question: Which “shrunken log2 fold change” value does the source give for RRIRQRPPRLPRPRPRPTQQPRP here?
Answer: Its value is 0.0196.

Question: With RRIRQRPPRLPRPRPRPTRCPRP as the sequence, how does the “shrunken log2 fold change” value read?
Answer: The value was 0.747.

Question: Which “shrunken log2 fold change” value does the source give for RRIRQRPPRLPRPRPRPTRQPRP here?
Answer: Its value is 0.798.

Question: How did the “shrunken log2 fold change” value turn out when RRIRQRPPRLPRPRPRPTSHPRP was run?
Answer: The value was 0.0206.

Question: RRIRQRPPRLPRPRPRPTSYPRP was tested. Which “shrunken log2 fold change” value did it give?
Answer: The value was -0.154.

Question: RRIRQRPPRLPRPRPRPTTNPRP was tested. Which “shrunken log2 fold change” value did it give?
Answer: The value was -0.143.

Question: How did the “shrunken log2 fold change” value turn out when RRIRQRPPRLPRPRPRPTVNPRP was run?
Answer: Its value is -0.0853.

Question: Which “shrunken log2 fold change” value does the source give for RRIRQRPPRLPRPRPRPTWNPRP here?
Answer: Its value is -0.0697.

Question: RRIRQRPPRLPRPRPRPVAWPRP was tested. Which “shrunken log2 fold change” value did it give?
Answer: The value was 0.128.

Question: How did the “shrunken log2 fold change” value turn out when RRIRQRPPRLPRPRPRPVCEPRP was run?
Answer: The value was -0.00878.

Question: With RRIRQRPPRLPRPRPRPVCRPRP as the sequence, how does the “shrunken log2 fold change” value read?
Answer: The value was 0.198.

Question: Which “shrunken log2 fold change” value does the source give for RRIRQRPPRLPRPRPRPVCSPRP here?
Answer: Its value is -0.21.

Question: With RRIRQRPPRLPRPRPRPVHPPRP as the sequence, how does the “shrunken log2 fold change” value read?
Answer: The value was 0.211.

Question: For RRIRQRPPRLPRPRPRPVHQPRP, which “shrunken log2 fold change” value is on record?
Answer: The value was -0.104.

Question: For RRIRQRPPRLPRPRPRPVILPRP, which “shrunken log2 fold change” value is on record?
Answer: Its value is -0.0369.

Question: For RRIRQRPPRLPRPRPRPVKIPRP, which “shrunken log2 fold change” value is on record?
Answer: The value was 0.352.

Question: With RRIRQRPPRLPRPRPRPVLKPRP as the sequence, how does the “shrunken log2 fold change” value read?
Answer: Its value is -0.108.

Question: For RRIRQRPPRLPRPRPRPVMFPRP, which “shrunken log2 fold change” value is on record?
Answer: Its value is -0.0919.

Question: For RRIRQRPPRLPRPRPRPVMRPRP, which “shrunken log2 fold change” value is on record?
Answer: Its value is 0.444.

Question: RRIRQRPPRLPRPRPRPVPWPRP was tested. Which “shrunken log2 fold change” value did it give?
Answer: Its value is -0.01.

Question: For RRIRQRPPRLPRPRPRPVRPPRP, which “shrunken log2 fold change” value is on record?
Answer: Its value is 0.162.

Question: How did the “shrunken log2 fold change” value turn out when RRIRQRPPRLPRPRPRPVRWPRP was run?
Answer: Its value is 0.428.

Question: For RRIRQRPPRLPRPRPRPVTKPRP, which “shrunken log2 fold change” value is on record?
Answer: The value was -0.0142.

Question: RRIRQRPPRLPRPRPRPVVTPRP was tested. Which “shrunken log2 fold change” value did it give?
Answer: Its value is 0.219.

Question: For RRIRQRPPRLPRPRPRPVVVPRP, which “shrunken log2 fold change” value is on record?
Answer: The value was -0.0728.

Question: RRIRQRPPRLPRPRPRPVWFPRP was tested. Which “shrunken log2 fold change” value did it give?
Answer: The value was 0.111.

Question: For RRIRQRPPRLPRPRPRPVYIPRP, which “shrunken log2 fold change” value is on record?
Answer: Its value is -0.214.

Question: RRIRQRPPRLPRPRPRPVYWPRP was tested. Which “shrunken log2 fold change” value did it give?
Answer: Its value is 0.0694.

Question: Which “shrunken log2 fold change” value does the source give for RRIRQRPPRLPRPRPRPWCKPRP here?
Answer: Its value is -0.0323.

Question: RRIRQRPPRLPRPRPRPWCYPRP was tested. Which “shrunken log2 fold change” value did it give?
Answer: Its value is -0.466.

Question: For RRIRQRPPRLPRPRPRPWDCPRP, which “shrunken log2 fold change” value is on record?
Answer: Its value is -0.383.

Question: With RRIRQRPPRLPRPRPRPWDRPRP as the sequence, how does the “shrunken log2 fold change” value read?
Answer: The value was -0.127.

Question: RRIRQRPPRLPRPRPRPWEIPRP was tested. Which “shrunken log2 fold change” value did it give?
Answer: Its value is -0.00822.

Question: RRIRQRPPRLPRPRPRPWGEPRP was tested. Which “shrunken log2 fold change” value did it give?
Answer: The value was -0.0675.

Question: Which “shrunken log2 fold change” value does the source give for RRIRQRPPRLPRPRPRPWGRPRP here?
Answer: Its value is 0.00592.

Question: For RRIRQRPPRLPRPRPRPWHNPRP, which “shrunken log2 fold change” value is on record?
Answer: The value was -0.385.

Question: Which “shrunken log2 fold change” value does the source give for RRIRQRPPRLPRPRPRPWHWPRP here?
Answer: Its value is 0.107.

Question: RRIRQRPPRLPRPRPRPWLEPRP was tested. Which “shrunken log2 fold change” value did it give?
Answer: The value was 0.0751.

Question: How did the “shrunken log2 fold change” value turn out when RRIRQRPPRLPRPRPRPWLFPRP was run?
Answer: Its value is 0.0523.

Question: For RRIRQRPPRLPRPRPRPWNLPRP, which “shrunken log2 fold change” value is on record?
Answer: The value was -0.0507.

Question: How did the “shrunken log2 fold change” value turn out when RRIRQRPPRLPRPRPRPWNTPRP was run?
Answer: Its value is -0.169.

Question: How did the “shrunken log2 fold change” value turn out when RRIRQRPPRLPRPRPRPWQCPRP was run?
Answer: The value was -0.1.

Question: For RRIRQRPPRLPRPRPRPWRLPRP, which “shrunken log2 fold change” value is on record?
Answer: Its value is -0.0759.

Question: RRIRQRPPRLPRPRPRPWSHPRP was tested. Which “shrunken log2 fold change” value did it give?
Answer: The value was -0.105.

Question: With RRIRQRPPRLPRPRPRPWSKPRP as the sequence, how does the “shrunken log2 fold change” value read?
Answer: Its value is 0.00202.

Question: For RRIRQRPPRLPRPRPRPWVKPRP, which “shrunken log2 fold change” value is on record?
Answer: Its value is 0.0219.

Question: With RRIRQRPPRLPRPRPRPWVSPRP as the sequence, how does the “shrunken log2 fold change” value read?
Answer: The value was -0.0689.

Question: Which “shrunken log2 fold change” value does the source give for RRIRQRPPRLPRPRPRPYAIPRP here?
Answer: Its value is -0.436.

Question: RRIRQRPPRLPRPRPRPYAYPRP was tested. Which “shrunken log2 fold change” value did it give?
Answer: Its value is -0.0214.

Question: For RRIRQRPPRLPRPRPRPYDHPRP, which “shrunken log2 fold change” value is on record?
Answer: Its value is -0.534.
